Residue numbers refer to the chain shown, from its start. Where “and” joins values, the source holds several entries; their conditions need not be identical. Equal entries are not always repeated.
B1: CD443MUT (CD44HABD^R41AR78SY79S), recombinant, unlabeled (domain or fragment, human, UniProt P16070 21-132, looked up)
chain: QIDLNITCRFAGVFHVEKNGAYSISRTEAADLCKAFNSTLPTMAQMEKALSIGFETCSSGFIEGHVVIPRIHPNSICAANNTGVYILTSNTSQYDTYCFNASAPPEEDCTSV
notes: Two preparations (A, B) were used in ITC; also called CD44HABD Arg41Ala, Arg78Ser, Tyr79Ser triple mutant; source: expressed using pET11c vector
B2: GST-tagged CD44 hyaluronan binding domain 21–132 (CD44HABD) (domain or fragment, human, UniProt P16070 21-132, looked up)
chain: B1 chain with A21R, S58R, S59Y
notes: also called GST-HABD; CD44 HABD 21–132; source: recombinant GST fusion-protein, purified as described [27]

What was measured:
Conditions in all cases: both partners purified
[1] = molecular target: T1, recombinant full length human vimentin, His-tagged (human, UniProt P08670 1-466); experiment: ITC; 50 mM Tris, 150 mM NaCl, pH 8.0, 25°C; two preparations of CD443MUT (A, B), two pairs of concentrations each; n is vimentin/CD443MUT (mol/mol)
T1 construct: vimentin, human, full length; The oligomeric state in the assays is not measured; the discussion supposes unit-length filaments; also called recombinant vimentin; source: expressed using pET15b vector
T1 sequence (P08670 whole entry): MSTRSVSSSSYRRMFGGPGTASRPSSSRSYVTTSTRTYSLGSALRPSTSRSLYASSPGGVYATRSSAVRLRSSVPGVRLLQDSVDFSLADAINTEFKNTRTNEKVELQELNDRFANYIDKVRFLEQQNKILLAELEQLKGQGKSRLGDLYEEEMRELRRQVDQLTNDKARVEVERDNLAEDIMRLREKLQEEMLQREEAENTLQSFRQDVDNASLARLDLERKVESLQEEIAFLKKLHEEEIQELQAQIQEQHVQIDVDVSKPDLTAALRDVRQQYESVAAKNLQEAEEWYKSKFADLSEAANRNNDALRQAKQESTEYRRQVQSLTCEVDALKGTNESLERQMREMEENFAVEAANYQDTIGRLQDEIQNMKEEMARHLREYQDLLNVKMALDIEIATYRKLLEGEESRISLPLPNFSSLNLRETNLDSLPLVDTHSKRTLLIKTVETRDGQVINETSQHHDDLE

[2] = molecular target: T1, recombinant full length human vimentin, …; experiment: SPR; Biacore3000; vimentin amine-coupled to CM5 chip; CD443MUT 0.46–123 µM injected; 50 mM Tris, 150 mM NaCl, pH 8.0; parallel two-site binding model and equilibrium analysis (equation 1)
[3] = molecular target: T1, recombinant full length human vimentin, …; experiment: as above; remark: listed apart in the source
[4] = molecular target: T1, recombinant full length human vimentin, …; experiment: pull-down; GST-CD44HABD or GST-CD443MUT with recombinant vimentin

Binder	stoichiometry N [1]	KD of the low affinity site [2]	KD from equilibrium response values (equation 1) [3]	KD of the high-affinity site (Kdiss1/Kass1) [3]	stoichiometry N [3]	binding result [4]
B1	9.9 mol/mol and 7.2 mol/mol	15 µM	15 ± 2 µM	0.074 µM	6.2 mol/mol	–
B2	–	–	–	–	–	binds
